Experimental findings from patent publication US20120064001A1 are described below.

Assay [1] addresses recombinant Mouse VEGF164 (mouse) (UniProt Q00731). The assay is described as follows: SPR (Biacore T100); monomeric scFv over 1000 RU mouse VEGF164 on a CM5 chip; 1:1 fit.
In assay [2] the target is human VEGF-A (human) (UniProt P15692). Description: SPR (Biacore T100); IgG over 100 RU human VEGF-A on a CM5 chip; 1:1 fit; 37°C.
Assay [3] has the same target. Description: SPR (Biacore T100); IgG over 100 RU human VEGF-A on a CM5 chip; 1:1 fit; 25°C.
For assay [4], the target named is VEGF-B. Description: indirect ELISA on coated growth factor; 2C3 at 1.0 ug/ml.
The target in assay [5] is VEGF-C. The description is as above.
The target of assay [6] is human VEGF-A (human) (UniProt P15692). The assay is described as above.
In assay [7] the target is VEGF-D. The description is as above.
In assay [8] the target is mouse VEGF (isoform not given) (mouse) (UniProt Q00731). The assay is described as above.
The target in assay [9] is PlGF. The description is as above.

Sequence of human VEGF-A (human) (P15692 other isoform, or with tags, fused parts or gaps limits assumed): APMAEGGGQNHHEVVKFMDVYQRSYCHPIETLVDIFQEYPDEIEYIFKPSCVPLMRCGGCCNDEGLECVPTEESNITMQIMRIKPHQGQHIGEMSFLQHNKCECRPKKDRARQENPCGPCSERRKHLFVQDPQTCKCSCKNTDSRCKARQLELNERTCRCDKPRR
Sequence of mouse VEGF (isoform not given) (mouse) (Q00731 other isoform, or with tags, fused parts or gaps limits assumed): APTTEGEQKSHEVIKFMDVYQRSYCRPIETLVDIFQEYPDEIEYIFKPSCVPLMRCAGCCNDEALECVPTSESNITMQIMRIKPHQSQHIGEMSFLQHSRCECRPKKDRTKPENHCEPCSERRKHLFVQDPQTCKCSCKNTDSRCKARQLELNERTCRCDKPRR

As to EJ173/112-C11 (r84/PGN311) scFv, the Kd in assay [1] came to 10 nM.

As to murine 2C3 anti-VEGF antibody (IgG), the dissociation constant Kd was 313 nM in assay [2] and 12.4 nM in assay [3]. In addition, the mean absorbance (absorbance at 450 nM) in [4] amounted to 0.09; in assay [5], 0.09; in [6], 3.07; in assay [7], 0.12; in assay [8], 0.09; in assay [9], 0.1.
